Source: IntAct's records for PubMed 15020407

B1: High osmolarity signaling protein SHO1 (Saccharomyces cerevisiae), P40073 (parent)
chain: MSISSKIRPTPRKPSRMATDHSFKMKKFYADPFAISSISLAIVSWVIAIGGSISSASTNESFPRFTWWGIVYQFLIICSLMLFYCFDLVDHYRIFITTSIAVAFVYNTNSATNLVYADGPKKAAASAGVILLSIINLIWILYYGGDNASPTNRWIDSFSIKGIRPSPLENSLHRARRRGNRNTTPYQNNVYNDAIRDSGYATQFDGYPQQQPSHTNYVSSTALAGFENTQPNTSEAVNLHLNTLQQRINSASNAKETNDNSNNQTNTNIGNTFDTDFSNGNTETTMGDTLGLYSDIGDDNFIYKAKALYPYDADDDDAYEISFEQNEILQVSDIEGRWWKARRANGETGIIPSNYVQLIDGPEEMHR
partner: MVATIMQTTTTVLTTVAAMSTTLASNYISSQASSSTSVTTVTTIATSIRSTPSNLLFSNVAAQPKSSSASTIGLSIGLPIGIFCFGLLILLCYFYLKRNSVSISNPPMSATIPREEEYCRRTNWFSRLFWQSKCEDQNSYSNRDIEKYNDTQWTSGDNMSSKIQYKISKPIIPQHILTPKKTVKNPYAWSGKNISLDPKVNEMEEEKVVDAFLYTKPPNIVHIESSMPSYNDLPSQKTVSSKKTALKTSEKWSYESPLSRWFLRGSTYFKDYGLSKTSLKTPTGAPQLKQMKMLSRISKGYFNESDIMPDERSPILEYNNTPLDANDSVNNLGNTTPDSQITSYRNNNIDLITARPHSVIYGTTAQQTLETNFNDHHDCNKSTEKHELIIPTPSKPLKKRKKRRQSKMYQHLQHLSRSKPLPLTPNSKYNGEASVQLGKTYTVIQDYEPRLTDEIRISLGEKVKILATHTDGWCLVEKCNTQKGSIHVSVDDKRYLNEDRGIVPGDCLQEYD

Variants of: B1
Conditions: with fus1_yeast FUS1, P11710
P352A was tested, and the “effect of a mutation on the interaction” value was “decreasing interaction”.
